According to patent publication US6635743:

B1: full-length AIM II (LIGHT) expressed on the cell surface (ligand)
chain: MEESVVRPSVFVVDGQTDIPFTRLGRSHRRQSCSVARVGLGLLLLLMGAGLAVQGWFLLQLHWRLGEMVTRLPDGPAGSWEQLIQERRSHEVNPAAHLTGANSSLTGSGGPLLWETQLGLAFLRGLSYHDGALVVTKAGYYYIYSKVQLGGVGCPLGLASTITHGLYKRTPRYPEELELLVSQQSPCGRATSSSRVWWDSSFLGGVVHLEAGEEVVVRVLDERLVRLRDGTRSYFGAFMV
B2: lymphotoxin beta receptor (LTβR)-Fc fusion protein (Fc fusion, human, UniProt P36941 31-227, looked up)
chain: QAVPPYASENQTCRDQEKEYYEPQHRICCSRCPPGTYVSAKCSRIRDTVCATCAENSYNEHWNYLTICQLCRPCDPVMGLEEIAPCTSKRKTQCRCQPGMFCAAWALECTHCELLSDCPPGTEAELKDEVGKGNNHCVPCKAGHFQNTSSPSARCQPHTRCENQGLVEAAPGTAQSDTTCKNPLEPLPPEMSGTMLM
notes: extracellular domain; also called sLTβR-Fc; lymphotoxin-β receptor-Fc fusion protein; not shown: IgG1 Fc from vector pUC19-IgG1-Fc
B3: natural processed form of AIM II purified from conditioned media of MCA-38 cells transfected with full length AIM II cDNA (residues 83-240) (ligand)
chain: LIQERRSHEVNPAAHLTGANSSLTGSGGPLLWETQLGLAFLRGLSYHDGALVVTKAGYYYIYSKVQLGGVGCPLGLASTITHGLYKRTPRYPEELELLVSQQSPCGRATSSSRVWWDSSFLGGVVHLEAGEEVVVRVLDERLVRLRDGTRSYFGAFMV
notes: apparent mass about 21 kDa, said to be consistent with glycosylation; also called MCA-38 AIM II; AIM II (aa 83-240)
B4: HVEM/TR2-Fc fusion protein (Fc fusion, UniProt Q92956 39-202, looked up)
chain: LPSCKEDEYPVGSECCPKCSPGYRVKEACGELTGTVCEPCPPGTYIAHLNGLSKCLQCQMCDPAMGLRASRNCSRTENAVCGCSPGHFCIVQDGDHCAACRAYATSSPGQRVQKGGTESQDTLCQNCPPGTFSPNGTLEECQHQTKCSWLVTKAGAGTSSSHWV
notes: not shown: Fc portion; detected with anti-human IgG
B5: Flag-tagged soluble AIM II protein (sAIM II), amino acids 74-240 of AIM II (ligand)
chain: DGPAGSWEQLIQERRSHEVNPAAHLTGANSSLTGSGGPLLWETQLGLAFLRGLSYHDGALVVTKAGYYYIYSKVQLGGVGCPLGLASTITHGLYKRTPRYPEELELLVSQQSPCGRATSSSRVWWDSSFLGGVVHLEAGEEVVVRVLDERLVRLRDGTRSYFGAFMV
notes: also called sLIGHT; AIM II-Flag; not shown: N-terminal FLAG peptide tag from vector pFLAG.CMV-1 (behind the preprotrypsin signal peptide)

Key:
[1] = molecular target: T1, TR6-(His), recombinant TR6 protein with hexa-histidine at the C-terminus (human, UniProt O95407 30-300); test: flow cytometry on AIM II (LIGHT)-transfected HEK 293 EBNA cells, anti-poly(His)6 and FITC anti-mouse IgG
T1 construct: also called DcR3; TR6 (DcR3)
T1 sequence: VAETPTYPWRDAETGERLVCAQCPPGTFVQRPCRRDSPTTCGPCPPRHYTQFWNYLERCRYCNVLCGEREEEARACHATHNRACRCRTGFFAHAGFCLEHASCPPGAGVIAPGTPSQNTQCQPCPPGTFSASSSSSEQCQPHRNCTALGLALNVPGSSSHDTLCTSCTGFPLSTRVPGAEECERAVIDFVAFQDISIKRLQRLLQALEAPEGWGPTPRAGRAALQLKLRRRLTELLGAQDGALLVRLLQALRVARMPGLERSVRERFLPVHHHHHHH
Method: (§1) After selection with Hygromycin B, cells were harvested with 1 mM EDTA in PBS and incubated with TR6-(His), HVEM/TR2-Fc, or LTβR-Fc for 20 minutes on ice. For detecting Fc-fusion protein, cells were stained with FITC-conjugated goat anti-human IgG. To detect TR6 binding, cells were stained with anti-poly(His)_6 and FITC conjugated goat anti-mouse IgG consecutively. The cells were analyzed by FACScan (Becton Dickinson).
(§2) These bindings indicate that TR6 can bind to both soluble and membrane-bound forms of AIM II (LIGHT).

[2] = molecular target: T2, BAP-Flag (negative control) (UniProt P00634 22-471 = phosphatase); test: BIAcore, LTβR-Fc immobilized, conditioned serum-free media of CHO cells
T2 construct: Tested as conditioned serum-free medium of transfected CHO cells
Method: (§3) CHO cells were transfected with either an AIM II-Flag tag expression vector or an BAP-Flag (negative control). Three days after transfection, AIM II expression was determined using the BIAcore instrument (BIAcore, Inc.) which permits real-time measurements of protein binding events to immobilized AIM II receptor, lymphotoxin-β receptor (BIAcore sensorgram detects binding by changes in refractive index at the surface of the flow cell). A lymphotoxin-β receptor-Fc fusion protein was covalently immobilized to the BIAcore flow cell via amine groups using N-ethyl-N'-(dimethylaminopropyl)carbodiimide/N-hydroxysuccinimide chemistry. Various dilutions of AIM II-Flag and the negative control (BAP-Flag) conditioned serum-free media were applied to the lymphotoxin-β-receptor-derivatized flow cell at 5 µl/min for a total volume of 50 µl. The amount of bound protein was determined after washing the flow cell with HBS buffer (10 mM HEPES, pH 7.4, 150 mM NaCl, 3.4 mM EDTA, 0.005% Surfactant P20). The flow cell surface was regenerated by displacing bound protein by washing with 20 µl of 10 mM HCl.

[3] = molecular target: B1; test: flow cytometry on AIM II (LIGHT)-transfected HEK 293 EBNA cells, FITC anti-human IgG
Method: as §1, §2

[4] = molecular target: B2; test: LTβR-Fc affinity column, eluate tested on LTβR BIAcore chip; band of about 21 kDa specifically bound to the column
Method: Conditioned media from the stable transfectants, CHO11 or MCA-38 cells, were filtered, centrifuged at 10,000×g and then passed over an MCIF-Fc affinity column (control column) followed by the LTβR-Fc affinity column (0.2 mL bed volume). The columns were washed with several bed column volumes HEPES buffered saline containing 0.005% Surfactant P-20. Bound protein was eluted with 10 mM HCl (3×0.5 ml fractions) and immediately neutralized with TRIS buffer. The fractions eluted from the LTβR column retained binding to LTβR BIAcore chip, whereas, fractions eluted from the control MCIF-Fc column were negative for binding. The eluted fractions were dried in Spedvac then resuspended in 20 μl water. An aliquot of the eluted protein was analyzed by reducing SDS-PAGE gels and detected by silver staining. A band of approximately ~25 kDa and ~21 kDa was detected specifically bound to the LTβR column from CHO-11 and MCA-38 cell lines. The remaining eluted material was subject to SDS-PAGE and blotted onto PVDF membrane for N-terminal sequence analysis.

DR4 = molecular target: T3, DR4 (UniProt O00220 24-239, limits assumed); test: in vitro binding assay, not described
T3 construct: also called TRAIL-R1; APO-2
T3 sequence (looked up): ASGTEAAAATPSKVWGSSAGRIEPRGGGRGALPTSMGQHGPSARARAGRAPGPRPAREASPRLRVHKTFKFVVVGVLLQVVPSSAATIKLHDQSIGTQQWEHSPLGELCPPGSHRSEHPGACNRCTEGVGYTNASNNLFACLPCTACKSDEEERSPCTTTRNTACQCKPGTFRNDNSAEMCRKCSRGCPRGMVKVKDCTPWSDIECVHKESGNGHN

DR5 = molecular target: T4, DR5 (UniProt O14763 56-210, limits assumed); test: in vitro binding assay, not described
T4 construct: also called TRAIL-R2

[5] = molecular target: B2; test: BIAcore, LTβR-Fc immobilized by amine coupling, CHO conditioned serum-free media
Method: as §3

[6] = molecular target: B4; test: FACS competition, TR2-Fc at 10 µg/ml preincubated with sAIM II
Method: Cells were collected by trypsinization or aspiration, and centrifuged at 1500–2000 rpm for 5 min. The cell pellets were resuspended and washed in 5 ml ice-cold PBS twice. And then, the cells were incubated with Flag-tagged AIM II protein or Abs at 10 μg/ml in the binding buffer (HBSS containing 10% BSA, 20 mM HEPES, pH 7.2, 0.02% NaN₃, and 25 μg/ml normal rat Ig) for 30 min at 4° C. Cells were then washed and stained with phycoerythrin (PE) conjugated to goat anti-mouse IgG at 20 μg/ml as described. To compete for cell surface binding, soluble LTβR-Fc fusion protein, TR2-Fc at 10 μg/ml was preincubated with AIM II for 30 min before adding to cells. Fluorescence was analyzed by a FACscan flow cytometer (Becton Dickinson, Mountain View, Calif.).

[7] = molecular target: T5, LTβR on the surface of MDA-MB-231 and HT-29 cells (human, UniProt P36941 31-435); test: summary of the FACS and cytotoxicity experiments
T5 construct: whole, on cells; The cells carry both LTβR and TR2; also called lymphotoxin β receptor
Method: (§4) FIGS. 8A–8M. Cell surface expression of the LTβR or TR2 by the FACS analyses using LTβR (FIGS. 8A–8D) or TR2 (FIGS. 8E–8H) mAb. […] FACS binding analyses of soluble AIM II protein alone (FIG. 8I) and blocking of a soluble AIM II protein binding by preincubation with the LTβR-Fc fusion protein (FIG. 8J) or TR2-Fc fusion protein (FIG. 8K) in MDA-MB-231 cells. FIG. 8L summarizes the surface expression of LTβR and TR2 in various cell lines. Effects of LTβR-Fc or TR2-Fc fusion protein to block the sAIM II-mediated cytotoxicity in HT-29 cells (FIG. 8M). […] Cells were incubated for five days and the viability of cells was determined by XTT assays.
(§5) A soluble tetrazolium/formazan (XTT) assay for cell growth in a 96-well plate was performed. Cells (2,000–4,000 cells/well) were grown in IMEM medium with 10% FBS or 1% FBS. After four to five days culture, XTT (1.0 mg/ml plus PMS at 1.53 mg/ml) was added to each well and incubated for four hours at 37° C. Absorbance at 450 nm was measured with the Dynatech Model MR700.
(§6) Cells were collected by trypsinization or aspiration, and centrifuged at 1500–2000 rpm for 5 min. The cell pellets were resuspended and washed in 5 ml ice-cold PBS twice. […] Fluorescence was analyzed by a FACscan flow cytometer (Becton Dickinson, Mountain View, Calif.).

[8] = molecular target: T6, TR2 on the surface of MDA-MB-231 and HT-29 cells and of T cells (human, UniProt Q92956 39-283); test: summary of the FACS and cytotoxicity experiments
T6 construct: whole, on cells; The tumour cells carry both LTβR and TR2; also called HVEM; ATAR
T6 sequence (looked up): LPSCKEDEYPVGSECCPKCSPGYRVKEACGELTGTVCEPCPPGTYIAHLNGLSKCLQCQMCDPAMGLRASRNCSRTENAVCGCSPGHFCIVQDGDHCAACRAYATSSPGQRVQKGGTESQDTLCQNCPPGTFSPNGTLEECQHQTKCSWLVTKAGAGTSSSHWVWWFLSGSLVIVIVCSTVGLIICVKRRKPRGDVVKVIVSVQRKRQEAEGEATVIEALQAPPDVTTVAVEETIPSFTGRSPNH
Method: as §4, §5, §6

[9] = molecular target: T1, TR6-(His), recombinant TR6 protein with …; test: summary of the experiments of Example 13
Fas = molecular target: T7, Fas (UniProt P25445 26-173, limits assumed); test: 'in a similar assay'; format not described
T7 construct: also called CD95; APO-1
T7 sequence (looked up): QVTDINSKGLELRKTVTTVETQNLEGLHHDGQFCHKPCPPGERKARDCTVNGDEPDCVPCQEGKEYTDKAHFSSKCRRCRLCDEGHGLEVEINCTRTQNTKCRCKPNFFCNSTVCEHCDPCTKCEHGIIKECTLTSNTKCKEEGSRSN

DR3 = molecular target: T8, DR3 (UniProt Q93038 25-199, limits assumed); test: 'in a similar assay'; format not described
T8 construct: also called TRAMP; APO-3
T8 sequence (looked up): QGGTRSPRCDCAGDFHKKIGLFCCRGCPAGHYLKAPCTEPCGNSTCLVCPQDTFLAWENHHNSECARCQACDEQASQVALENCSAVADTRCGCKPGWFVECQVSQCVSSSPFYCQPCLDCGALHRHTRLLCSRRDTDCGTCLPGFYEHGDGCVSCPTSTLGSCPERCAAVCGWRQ

TNFRI = molecular target: T9, TNFRI (UniProt P19438 30-211, limits assumed); test: 'in a similar assay'; format not described
T9 construct: also called TNFR1
T9 sequence (looked up): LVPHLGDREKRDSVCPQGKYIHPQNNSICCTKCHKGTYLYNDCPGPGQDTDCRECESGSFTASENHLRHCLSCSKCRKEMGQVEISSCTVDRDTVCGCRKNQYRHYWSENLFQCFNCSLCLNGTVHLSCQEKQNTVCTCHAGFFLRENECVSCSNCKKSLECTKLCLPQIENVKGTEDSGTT

T2 sequence (P00634 22-471): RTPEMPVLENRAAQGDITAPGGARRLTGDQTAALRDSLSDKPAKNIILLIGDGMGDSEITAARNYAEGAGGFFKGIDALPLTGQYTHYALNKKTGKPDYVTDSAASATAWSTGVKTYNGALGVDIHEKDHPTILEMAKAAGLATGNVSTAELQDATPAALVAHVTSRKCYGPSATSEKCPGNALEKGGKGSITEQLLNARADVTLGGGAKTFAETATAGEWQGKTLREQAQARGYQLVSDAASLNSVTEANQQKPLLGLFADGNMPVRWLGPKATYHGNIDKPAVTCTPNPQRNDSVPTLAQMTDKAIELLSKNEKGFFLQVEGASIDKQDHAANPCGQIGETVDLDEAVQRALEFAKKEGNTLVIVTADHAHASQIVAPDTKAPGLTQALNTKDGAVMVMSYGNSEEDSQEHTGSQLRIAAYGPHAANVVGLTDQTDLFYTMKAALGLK

## B1
[1]
  binding result: binds

## B2
[2]
  binding result: no binding
[3]
  binding result: binds

## B3
[4]
  binding result: binds

## B4
[3]
  binding result: binds

## B5
DR4
  binding result: no binding
DR5
  binding result: no binding
[5]
  binding result: binds
[6]
  binding result: binds
[7]
  binding result: binds
[8]
  binding result: binds
[9]
  binding result: binds
Fas
  binding result: no binding
DR3
  binding result: no binding
TNFRI
  binding result: no binding
